Test results as given in patent US20040116653A1.

Biological target: human CD4 on cells (MT-2, MT-4 cells; mouse SR.hCD4 cells transfected with human CD4) (human) (UniProt P01730)
Assay: cell-based or functional assay

Q: With “synthetic soluble multiple-branched peptide (MBP) corresponding to amino acids 51-74 of CD38 (CD3851-74 MBP)” as the substance, how does the EC50, inhibition of HIV-1IIIB infection of MT-4 cells (p24 ELISA, day 3) read?
A: Its EC50, inhibition of HIV-1IIIB infection of MT-4 cells (p24 ELISA, day 3) is 12 nM.

Q: What about the EC90, inhibition of HIV-1IIIB infection of MT-4 cells (p24 ELISA, day 3) of the same substance?
A: The EC90, inhibition of HIV-1IIIB infection of MT-4 cells (p24 ELISA, day 3) was 75 nM.
